Assay results reported in the nanobody polyreactivity screen of Harvey et al. (2022).

experiment: yeast display, Sf9 membrane polyspecificity reagent, FACS + sequencing; frameworks hold sequencing errors
In short: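 Nanobodies from a synthetic yeast display library (Saccharomyces cerevisiae BJ5465), induced 36–48 hours with galactose, were stained 1 hour at 4 °C with 10% biotinylated, detergent-solubilized Sf9 membrane reagent, enriched on streptavidin microbeads, then FACS-sorted. Anti-HA (expression) and streptavidin (reagent binding) fluorescence set low and high (top ~1%) gates. Polyreactivity labels come from the gate of origin. Genes were colony-PCR amplified, MiSeq 2 × 250 sequenced and filtered by CDR length.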

| Sequence | polyreactivity (PSR sort gate) |
| --- | --- |
| QVQLVESGGGLVQAGGSLRLSCAASGFIFIIYAMGWYRQAPGKERELVAGIRWSGGSTYYADSVKGRFTISRDNAKNTVYLQMNSLKPEDTAVYYCIKDRGSLTLYTYDYWGQGTQVTVSS | low polyreactivity |
| QVQLVESGGGLVQAGGSLRLSCAASGFIFIKYAMGWYRQAPGKERELVAGITRSGSSTYYADSVKGRFTISRDNAKNTVYLQMNSLKPEDTAVYYCAAASGSSVGRYGYWGQGTQVTVSS | high polyreactivity |
| QVQLVESGGGLVQAGGSLRLSCAASGFIFILNAMGWYRQAPGKERELVAGISISGGSTYYADSVKGRFTISRDNAKNTVYLQMNSLKPEDTAVYYCAAPDGDTRVSDQAYDYWGQGTQVTVSS | low polyreactivity |
| QVQLVESGGGLVQAGGSLRLSCAASGFIFIRNAMGWYRQAPGKEWELVAAISSGGRTYYADSVKGRFTISRDNAKNTVYLQMNSLKPEDTAVYYCAARVITHYGRYYYWGQGTQVTVSS | high polyreactivity |
| QVQLVESGGGLVQAGGSLRLSCAASGFIFITVNAMGWYRQAPGKEREFVAAITRSGTGTYYADSVKGRFTISRDYAKYTVFLQMNSLKPEDTAVSYCAADATSTGAYDYWGQGTQVTVSS | low polyreactivity |
| QVQLVESGGGLVQAGGSLRLSCAASGFIFITYDMGWYIQAPGKERELVAVITSGGTTNYADSVKGRFTIARDNAKNTVYLQMNSLKPEDTAVYYCNRDSVLDPGNPNPYGFDYWGQGTQVTVSS | low polyreactivity |
| QVQLVESGGGLVQAGGSLRLSCAASGFIFIYYAMGWYRQAPGKERELVATINGITGSTYYADSVKGRFTISRDNAKNTVYLQMNSLKPEDTAVYYCAKVPRKYRAWMDYWGQGTQVTVSS | high polyreactivity |
| QVQLVESGGGLVQAGGSLRLSCAASGFIFKANAMGWYRQAPGKERELVAVITRRGGSTYYADSVKGRFTISRDNAKNTVYLQMNSLKPEDTAVYYCAAKSYTYGYNYWGQGTQVTVSS | high polyreactivity |
| QVQLVESGGGLVQAGGSLRLSCAASGFIFKAYAMGWYRQAPGKERELVASITSGDSTNYADSVKGRFTISRDNAKNTVYLQMNSLKPEDTAVYYCNADGWRWHRRKWVYGYDYWGQGTQVTVSS | low polyreactivity |
| QVQLVESGGGLVQAGGSLRLSCAASGFIFKFYTMGWYRQAPGKERELVAVISGSGGRTYYADSVKGRFTISRDNAKNTVYLQMNSLKPEDTAVYYCARYGPYQSSYHYDYWGQGTQVTVSS | high polyreactivity |
| QVQLVESGGGLVQAGGSLRLSCAASGFIFKGYAMGWYRQAPGKERELVAAISKGGGNTYYADSVMGRFSISRDNAKNTVYLQMNSLKPEDTAVYYCAAVPTRYRSYTYTYGGYNYWGQGTQVTVSS | high polyreactivity |
| QVQLVESGGGLVQAGGSLRLSCAASGFIFKGYDMGWYRQAPGKEREMVAAITSGSTNYADSVKGRFTNSRDNAKNTVYLQMNSVKPEDTAVYYCNAELGRATLYPRVFIERGGYWGQGTQVNVSS | low polyreactivity |
| QVQLVESGGGLVQAGGSLRLSCAASGFIFKKYVMGWYRQAPGKERELVAGISRSGGSTYYADSVKGRFTISRDNAKNTVYLQMNSLKPEDTAVYYCAAYIYQSPTRGGGYWGQGTQVTVSS | high polyreactivity |
| QVQLVESGGGLVQAGGSLRLSCAASGFIFKPNAMGWYRQAPGKERELVAAITWGGDNTYYADSVKGRFTISRDNAKNTVYLQMNSLKPDDTAVYYCAAEWKFHSDASYIYDYWGQGTQVTVSS | high polyreactivity |
| QVQLVESGGGLVQAGGSLRLSCAASGFIFKPYAMGWYRQAPWKERELVAAITVNGGTTYYADSVKGRFTISRDNAKNTVYLQMNSLKPEDTAVYYCNRGRPGGPSWYHYDYWGQGTQVTVSS | high polyreactivity |
| QVQLVESGGGLVQAGGSLRLSCAASGFIFKRSAMGWYRQAPGKERELVAAITLSGGDTYYADSVKGRFTISRDNAKNNVYLQMNSLKPEDTAVYYCNAPYIGENYYWGQGTQVTVSS | high polyreactivity |
| QVQLVESGGGLVQAGGSLRLSCAASGFIFKRYAMGWYRQAPGKERELVAAITSGGSTHYADSVKGRFTISRDNAKNTVYFQMNSLKPEDTAVYYCASRRYKWGVRYDYWGQGTQVTVSS | high polyreactivity |
| QVQLVESGGGLVQAGGSLRLSCAASGFIFKSNAMGWYRQAPGKERELVAAITKRGGSTYYADSVKGRFTISRDNAKNTVYLQMNSLKPEDTAVYYCAVRKPYSRYGGFDYWGQGTQVTVSS | high polyreactivity |
| QVQLVESGGGLVQAGGSLRLSCAASGFIFKSYAMGWYRQAPGKERELVAAITSGGSTYYADSVKGRFTISRDNAKNTVYLQMNSLKPEDTAVYYCATRYRFGWGLSWYDYWGQGTQVTVSS | high polyreactivity |
| QVQLVESGGGLVQAGGSLRLSCAASGFIFLGNAMGWYRQAPGKERELVAAISSGGSTYADSVKGRFTISRDNAKNTVYLQMNSLKPEDTAVNYCAVDRAFRAQNYHEYDYWGQGTQVTVSS | low polyreactivity |
| QVQLVESGGGLVQAGGSLRLSCAASGFIFLINAMGWYRQAPGKERELVAGITSGGGNTYYADSVKGRFTISRDNAKNTVYLQMYSLKPEDTAVFYCAARLFDYWGQGTQVTVSS | low polyreactivity |
| QVQLVESGGGLVQAGGSLRLSCAASGFIFLQNAMGWYRQAPGKERELVAVIRLSSCSTYYADSVKGRFTISRDNAKNTVYFEMNSLKPEDTAVYYCAARGYYSGQTTIGMDYWGQGTQVTVSS | low polyreactivity |

| Sequence | polyreactivity (PSR sort gate) |
| --- | --- |
| QVQLVESGGGLVQAGGSLRLSCAASGFIFLSNGMGWYRPAPGKERELVAAITSGGNTNYADSVTGRFTISRDNAKTTVYLQMNSLKPEDTAVYYCAAYWIFITYFGYYSEYAYWGQGTQVTVSS | low polyreactivity |
| QVQLVESGGGLVQAGGSLRLSCAASGFIFLVNAMGWYRHAPGKERELVAAITTSGASTYYADSVKGRFTISRDNAKNTVYLQMNSLKPEDTAVYYCAAGSYARPEYGYWGQGTQVTVSS | low polyreactivity |
| QVQLVESGGGLVQAGGSLRLSCAASGFIFLWYAMGWYRQAPGKERELVAAISSGGGRTHYADSVKGRFTISRDNAKNTVYLQMNSLKPEDTAVYYCAAALRGQASRFDYWGQGTKVTVSS | high polyreactivity |
| QVQLVESGGGLVQAGGSLRLSCAASGFIFLYYAMGWYRQAPGKERELVAAISRSGGRTYYADSVKGRFTISRDNAKNTVYLQMNSLKPEDTAVYYCAADRLGSISGYDYWGQGTQVTVSS | high polyreactivity |
| QVQLVESGGGLVQAGGSLRLSCAASGFIFNGNAMGWYIQAPGKERELVVAISKSGGRTYYADSVKGRFTISRDNAKYTVYLQMNSLKPEDTAVYDCARRTYTRMYWGQGTQVTVSS | high polyreactivity |
| QVQLVESGGGLVQAGGSLRLSCAASGFIFNHYAMGWYRQAPGKEREFVAAISWSGGSTYYADSVKGRFTISRDNAKNTVYLQMNSLKPEDTAVYYCAASYNCLWHGDYDYWGQGTQVTVSS | low polyreactivity |
| QVQLVESGGGLVQAGGSLRLSCAASGFIFNIYAMGWYRQAPGKERELVAAITFSGGSTYYADSVKGRFTISRDNAKNTVYLQKNSLKPEDTAVYYCAADYLSEYTTYDYWGQGTQVTVSS | low polyreactivity |
| QVQLVESGGGLVQAGGSLRLSCAASGFIFNKYAMGWYRQAPGKERELVATIRRDGSTNYADSVKGRFTISRDNAKNTVYLQMNSLIPEDTAVYYCAVRPYYWSRDYYWGQGTQVTVSS | high polyreactivity |
| QVQLVESGGGLVQAGGSLRLSCAASGFIFNRYAMGWYRQAPGKERELVATITRRGGRTYFADSVKGRFTISRDNAKNTVYLQMNSLKPEDTAVYYCNADPNVPVETFDYWGQGTQVTVSS | high polyreactivity |
| QVQLVESGGGLVQAGGSLRLSCAASGFIFNRYVMGWYRQAPGKERELVAVISRGGSTSYADSVKGRFTISRDNAKNTVYLQMNSLKPEDTAVYYCNAVHSRVYYSLGYGYWGLGTQVTVSS | high polyreactivity |
| QVQLVESGGGLVQAGGSLRLSCAASGFIFPAYTMGWYRQAPGKERELVAAITWSGGSTYYADSVKGRFTISRDNAKNTVYLQMKSLKPEDTAVYYCAAYVSRKYRKGPRFAYDYWGQGTQVTVSS | high polyreactivity |
| QVQLVESGGGLVQAGGSLRLSCAASGFIFPDDAMGWYSQAPGKERELVASINRSGGSTNYADSVKGRFTISRDHAKNTDYLQMNSLKPEDTAVYYCAPDFSFLGNASARLDYDYWGQGTQVTGSS | low polyreactivity |
| QVQLVESGGGLVQAGGSLRLSCAASGFIFPEYAMGWYRQAPGKERELVAAINWSGGNTYYADSVKGRFTISRDNAKNTVYLQMNSLKPEDTAVYYCNVDEWVTDDDYWGQGTEVTVSS | low polyreactivity |
| QVQLVESGGGLVQAGGSLRLSCAASGFIFPEYAMGWYRQAPGKERELVAAINWSGGNTYYADSVKGSFTISRDNAKNTVYLQMNSLKPEDTAVYYCNVDDWVTDDDYWGQGTQVTVSS | low polyreactivity |
| QVQLVESGGGLVQAGGSLRLSCAASGFIFPFYAMGWYRQAPGKEREFVAAITLSSGSTYYADSVKGRFTISRDNAKNTVFLQMNSLKPEDTAVYYCNADYNVYLYYGYDYWGQGTHVTVSS | low polyreactivity |
| QVQLVESGGGLVQAGGSLRLSCAASGFIFPFYAMGWYRQAPGKERELVAVIRTSSDRTYYADSVKGRFTISRDNAKNTVYLQMNSLKPEDTAVYYCAAETYRLFDYWGQGTQVTVSS | low polyreactivity |
| QVQLVESGGGLVQAGGSLRLSCAASGFIFPGYAMGWYRQAPGKERELVAAISRSGGITYYADSVKGRFTISRDNAKNTVYLQMNSLKPEDTAVYYCAARDRVRDDYWGQGTQVTVSS | high polyreactivity |
| QVQLVESGGGLVQAGGSLRLSCAASGFIFPLYTMGWYRQAPGKERELVAAISVTGGSTYYADSVKGRFTISRDNAKNTVYLQMNSLKPEDTAVYYCNAYLFFLNRVWSFDYWGQGTQVTVSS | high polyreactivity |
| QVQLVESGGGLVQAGGSLRLSCAASGFIFPRNVMGWYRQAPGKERELVAAISRSGGSTYYADSVKGRFTISPDNVKNTVFLQMNSLIPEDTAVYYFAKRTFYNGEYWGQGTQVTVSS | low polyreactivity |
| QVQLVESGGGLVQAGGSLRLSCAASGFIFPRYVMGWYRQAPGKERELVAAITQGGGSTYYADSVKGRFTISRDNAKNTVYLQMNSLKPEDTAVYYCAAEVWRSYGYWGQGTQVTVSS | low polyreactivity |
| QVQLVESGGGLVQAGGSLRLSCAASGFIFPSYAMGWYRQAPGKERELVAAITRSSGSTYYADSVKGRFTISRDNAKNTVYLEMNCLKAVDTAVYYCNAFDYSYYRSPEMDYWGQGTQVTVSS | high polyreactivity |
